Data set [1] deals with HeLa Kyoto. Briefly: solubility in G1/S (NP-40 vs SDS abundance) (log2 ratio); higher = more soluble. The note with it: cell cycle stage: G1/S.
Data set [2] concerns HeLa Kyoto. Briefly: melting temperature (median over replicates), in situ; higher = more thermally stable.
Data set [3] concerns HeLa Kyoto. In words: thermal stability score vs G1/S (z-score of summed log2 fold changes over temperatures); higher = more thermally stable than in G1/S.
Data set [4] concerns HeLa Kyoto. In words: solubility change mitosis vs G1/S (difference of NP-40 vs SDS log2 ratios) (log2 ratio difference); higher = more soluble in mitosis.
Setting [5] is: cell cycle stage: early G1 (4.5 h after nocodazole release).
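Wherever melting temperature (median over replicates), in situ is given: HeLa Kyoto cells synchronized by double thymidine or nocodazole block, proteins quantified by TMT10plex mass spectrometry, three independent biological replicates.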
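Wherever solubility change mitosis vs G1/S (difference of NP-40 vs SDS log2 ratios) is given: synchronized HeLa Kyoto cells (double thymidine block for G1/S, nocodazole release for mitosis), protein amounts in NP-40 versus SDS lysates quantified by mass spectrometry, three biological replicates.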
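Wherever solubility in G1/S (NP-40 vs SDS abundance) is given: HeLa Kyoto cells arrested at G1/S by double thymidine block, proteins quantified by TMT10plex mass spectrometry in mild NP-40 versus SDS extracts, three biological replicates.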
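Wherever thermal stability score vs G1/S (z-score of summed log2 fold changes over temperatures) is given: synchronized HeLa Kyoto cells, proteins quantified by TMT10plex mass spectrometry, three biological replicates, mitosis taken 0.5 h after nocodazole release, G1/S directly after double thymidine block.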

As for “MRGPPAWPLRLLEPPSPAEPGRLLPVACVWAAASRVPGSLSPFTGLRPARLWGAGPALLWGVGAARRWRSGCRGGGPGASRGVLGLARLLGLWARGPGSCRCGAFAGPGAPRLPRARFPGGPAAAAWAGDEAWRRGPAAPPGDKGRLRPAAAGLPEARKLLGLAYPERRRLAAAVGFLTMSSVISMSAPFFLGKIIDVIYTNPTVDYSDNLTRLCLGLSAVFLCGAAANAIRVYLMQTSGQRIVNRLRTSLFSSILRQEVAFFDKTRTGELINRLSSDTALLGRSVTENLSDGLRAGAQASVGISMMFFVSPNLATFVLSVVPPVSIIAVIYGRYLRKLTKVTQDSLAQATQLAEERIGNVRTVRAFGKEMTEIEKYASKVDHVMQLARKEAFARAGFFGATGLSGNLIVLSVLYKGGLLMGSAHMTVGELSSFLMYAFWVGISIGGLSSFYSELMKGLGAGGRLWELLEREPKLPFNEGVILNEKSFQGALEFKNVHFAYPARPEVPIFQDFSLSIPSGSVTALVGPSGSGKSTVLSLLLRLYDPASGTISLDGHDIRQLNPVWLRSKIGTVSQEPILFSCSIAENIAYGADDPSSVTAEEIQRVAEVANAVAFIRNFPQGFNTVVGEKGVLLSGGQKQRIAIARALLKNPKILLLDEATSALDAENEYLVQEALDRLMDGRTVLVIAHRLSTIKNANMVAVLDQGKITEYGKHEELLSKPNGIYRKLMNKQSFISA [ABCB10]”, the “solubility in G1/S (log2)” value with HeLa Kyoto [1] is -0.0973. The melting temperature in the data set with HeLa Kyoto [2] (cell cycle stage: G1/S) stood at 53.8 °C; in the data set on HeLa Kyoto [2] (cell cycle stage: mitosis), 54 °C. For the same sequence, the thermal stability score is 0.476 in the data set with HeLa Kyoto [3] (setting [5]) and -0.874 in the data set with HeLa Kyoto [3] (cell cycle stage: mitosis). Besides, the “solubility change mitosis (log2)” value in the data set with HeLa Kyoto [4] was -0.029.
Consider “MRKPDSKIVLLGDMNVGKTSLLQRYMERRFPDTVSTVGGAFYLKQWRSYNISIWDTAGREQFHGLGSMYCRGAAAIILTYDVNHRQSLVELEDRFLGLTDTASKDCLFAIVGNKVDLTEEGALAGQEKEECSPNMDAGDRVSPRAPKQVQLEDAVALYKKILKYKMLDEQDVPAAEQMCFETSAKTGYNVDLLFETLFDLVVPMILQQRAERPSHTVDISSHKPPKRTRSGCCA [RAB20]”, for which the “solubility in G1/S (log2)” value in the data set on HeLa Kyoto [1] is 0.0752. Moreover, the melting temperature was found to be 54.4 °C in the data set on HeLa Kyoto [2] (cell cycle stage: G1/S) and 53.8 °C in the data set on HeLa Kyoto [2] (cell cycle stage: mitosis). The thermal stability score with HeLa Kyoto [3] (setting [5]) turned out to be 3.91; with HeLa Kyoto [3] (cell cycle stage: mitosis), 1.44. Also, in the data set on HeLa Kyoto [4], the “solubility change mitosis (log2)” value was -0.187.
As for “MRKVVLITGASSGIGLALCKRLLAEDDELHLCLACRNMSKAEAVCAALLASHPTAEVTIVQVDVSNLQSVFRASKELKQRFQRLDCIYLNAGIMPNPQLNIKALFFGLFSRKVIHMFSTAEGLLTQGDKITADGLQEVFETNVFGHFILIRELEPLLCHSDNPSQLIWTSSRSARKSNFSLEDFQHSKGKEPYSSSKYATDLLSVALNRNFNQQGLYSNVACPGTALTNLTYGILPPFIWTLLMPAILLLRFFANAFTLTPYNGTEALVWLFHQKPESLNPLIKYLSATTGFGRNYIMTQKMDLDEDTAEKFYQKLLELEKHIRVTIQKTDNQARLSGSCL [HSD17B7]”, in the data set on HeLa Kyoto [1], the “solubility in G1/S (log2)” value is -0.113. The figures for the melting temperature in the data set with HeLa Kyoto [2] (cell cycle stage: G1/S) and with HeLa Kyoto [2] (cell cycle stage: mitosis) were 52.8 °C and 51 °C, respectively. Besides, the thermal stability score was -1.29 in the data set with HeLa Kyoto [3] (setting [5]) and -0.53 in the data set on HeLa Kyoto [3] (cell cycle stage: mitosis). Further, the “solubility change mitosis (log2)” value with HeLa Kyoto [4] is -0.161.
On to “MRLALLWALGLLGAGSPLPSWPLPNIGGTEEQQAESEKAPREPLEPQVLQDDLPISLKKVLQTSLPEPLRIKLELDGDSHILELLQNRELVPGRPTLVWYQPDGTRVVSEGHTLENCCYQGRVRGYAGSWVSICTCSGLRGLVVLTPERSYTLEQGPGDLQGPPIISRIQDLHLPGHTCALSWRESVHTQKPPEHPLGQRHIRRRRDVVTETKTVELVIVADHSEAQKYRDFQHLLNRTLEVALLLDTFFRPLNVRVALVGLEAWTQRDLVEISPNPAVTLENFLHWRRAHLLPRLPHDSAQLVTGTSFSGPTVGMAIQNSICSPDFSGGVNMDHSTSILGVASSIAHELGHSLGLDHDLPGNSCPCPGPAPAKTCIMEASTDFLPGLNFSNCSRRALEKALLDGMGSCLFERLPSLPPMAAFCGNMFVEPGEQCDCGFLDDCVDPCCDSLTCQLRPGAQCASDGPCCQNCQLRPSGWQCRPTRGDCDLPEFCPGDSSQCPPDVSLGDGEPCAGGQAVCMHGRCASYAQQCQSLWGPGAQPAAPLCLQTANTRGNAFGSCGRNPSGSYVSCTPRDAICGQLQCQTGRTQPLLGSIRDLLWETIDVNGTELNCSWVHLDLGSDVAQPLLTLPGTACGPGLVCIDHRCQRVDLLGAQECRSKCHGHGVCDSNRHCYCEEGWAPPDCTTQLKATSSLTTGLLLSLLVLLVLVMLGASYWYRARLHQRLCQLKGPTCQYRAAQSGPSERPGPPQRALLARGTKQASALSFPAPPSRPLPPDPVSKRLQAELADRPNPPTRPLPADPVVRSPKSQGPAKPPPPRKPLPADPQGRCPSGDLPGPGAGIPPLVVPSRPAPPPPTVSSLYL [ADAM15]”, for which the “solubility in G1/S (log2)” value in the data set with HeLa Kyoto [1] was found to be 0.293. Further, the values for the melting temperature with HeLa Kyoto [2] (cell cycle stage: G1/S) and in the data set on HeLa Kyoto [2] (cell cycle stage: mitosis) were 54.2 °C and 55.4 °C, respectively. Moreover, the results for the thermal stability score with HeLa Kyoto [3] (setting [5]) and in the data set with HeLa Kyoto [3] (cell cycle stage: mitosis) were 0.908 and 2.18, respectively. In addition, the “solubility change mitosis (log2)” value in the data set on HeLa Kyoto [4] was -0.0652.

Values taken from the supplement of paper PMC5998384.
